This passage reports Kd results from publication PMC4165446.

Common to all, as to assay: other fluorescence titration
The target in test [1] is FIH-Gln239 → Ala variant (human).
The target in test [2] is FIH-Gln239 → His variant (human).
Test [3] concerns the target FIH-Gln239 → Asn variant (human).
Test [4] concerns the target FIH-Gln239 → Glu variant (human).

B1: 39-mer CTAD peptide (C-terminal activation domain of human HIF1α, HIF1α 788–826, Cys800 → Ala) (peptide)
peptide: DESGLPQLTSYDAEVNAPIQGSRNLLQGEELLRALDQVN
The term Kd denotes the free concentration of one partner at which half of the binding sites on the other are occupied at equilibrium, for simple one-to-one binding. On to B1, for which the Kd in test [1] stood at 100 µM; in test [2], 64 µM; in test [3], 98 µM; in test [4], 75 µM.
